Source: the supplement of paper PMC10567573
± gives the standard deviation.

Test: protein stability index of a GFP-peptide fusion (GPS, HEK-293T) (PSI 1-6); higher = more stable
Conditions: c terminus: a fixed tail appended
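Also: 24-mer peptide tiles fused after GFP, lentivirally expressed, FACS-sorted into six equal bins by GFP/DsRed ratio, decoded by Illumina sequencing, PSI is the read-weighted mean bin number.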

Sequence	protein stability index (treatment: DMSO)	protein stability index (treatment: MLN4924 1 uM, 8 h)
STVQILTEGFPPGGGNARATGMFL [ZFYVE21]	2.16 ± 0.19	2.27 ± 0.35
DGKRCRRKDVCKSTHHGCEHICVN [MATN2]	3.65 ± 0.3	3.92 ± 0.21
FLLLIVFYTAITKKIFKSHLKSSR [P2RY14]	2.69 ± 0.42	2.52 ± 0.65
VRRTDDTPVVLVGNKSDLKQLRQV [RIT1]	3.56 ± 0.26	3.6 ± 0.23
KTHTGEKPHRCHNCGKSFSRLTAL [ZNF449]	2.47 ± 0.12	2.67 ± 0.45
VPQRTAGGDVPERELYIRWLEVAA [MYORG]	2.62 ± 0.19	2.77 ± 0.3
LNGENSDIKICALGEEWSLHKIYL [GMCL1]	2.14 ± 0.32	1.94 ± 0.41
RRKCGQYWPLEKDSRIRFGFLTVT [PTPN9]	2.3 ± 0.69	2.16 ± 0.47
VASLPLDQSDEGSSSQKEESPSTL [MAGEA10]	5.65 ± 0.14	5.64 ± 0.14
GTNTVSFYTLSPNSHFSLNVKTLK [PCDHGC5]	2.4 ± 0.39	2.51 ± 0.21
EMRIPALNAYMKSLLSLPVWVLMD [NCF4]	3.26 ± 0.95	2.92 ± 0.55
KKGSNGYGFYLRAGSEQKGQIIKD [PDZK1]	3.19 ± 0.44	3.33 ± 0.27
GLEHAAAGGSSGTTARERPCVRPG [FBF1]	4.96 ± 0.24	4.95 ± 0.2
AGTSSHGCWAWPLAGLSVGRSSLT [PXN]	2.5 ± 0.26	2.61 ± 0.26
LAICRPLTYSTRMSQTVQRMLVAA [OR3A1]	2.49 ± 0.17	2.54 ± 0.14
QSRSFRILAHLTGTEFMQDPDEEH [PDLIM7]	3.95 ± 0.11	4.17 ± 0.07
DLLCAQLQLPQLSDLGLLRLCTWL [FANCE]	2.53 ± 0.35	2.78 ± 0.42
LEEEEEEEDLVLTCEDDEDEELGG [ZBTB22]	5.57 ± 0.2	5.56 ± 0.18
SSSPPGTPSPADAKAPPTACYAGA [CEBPB]	5.14 ± 0.14	4.91 ± 0.29
LLARPGTGEHREFKLDKKYQRPQD [FBF1]	3.95 ± 0.41	4.16 ± 0.3
GLEEADAEVSVISEADPQALLQAM [FBF1]	5.06 ± 0.26	5.05 ± 0.15
LYSSSLGGGVATSPMLIVFHGKYS [GLT8D2]	2.38 ± 0.48	2.44 ± 0.52
APGEEEEEEEEATNTHPPASLPSQ [CHGA]	5.57 ± 0.34	5.71 ± 0.19

Sequence	protein stability index (treatment: DMSO)	protein stability index (treatment: MLN4924 1 uM, 8 h)
TGCVLGSSGKVLPKWGWEQLEVTC [POMT2]	2.07 ± 0.36	2.25 ± 0.27
PSNGRIDIKQLIAKKIKLTAEAEE [SOAT1]	3.19 ± 0.59	3.33 ± 0.31
DHELGRCTDSVVKYELMRPSNKAP [EHMT1]	4.19 ± 0.091	4.23 ± 0.31
IQPSSEGLGPTSEPFPSSDDSPRS [SPAG8]	5.41 ± 0.21	5.35 ± 0.15
RHFGTILNYLRDGSVPLPESTREL [KCTD13]	2.78 ± 0.16	2.94 ± 0.41
GKGEGPIWLDNLHCTGNEATLAAC [LOXL2]	3.43 ± 0.23	3.52 ± 0.57
LGLAGRCLTLTPRPATEAELLTCH [HDAC6]	2.86 ± 0.26	2.7 ± 0.4
GIAVWNMDVSREEAPQWLESDSCQ [WDFY1]	3.81 ± 0.081	3.74 ± 0.28
VADRWYSEIKNYNFQQPGFTSGTG [GLIPR2]	2.61 ± 0.097	2.93 ± 0.34
PAASNSSDLFDLMGSSQATMTSSQ [CLINT1]	5.06 ± 0.16	5.02 ± 0.17
FVENGHSESSGQTHLEGDTVQIIC [CFHR2]	3.21 ± 0.38	3.67 ± 0.37
SSEKKRQSSADGSQPPKKKPKTTN [RBBP5]	5.24 ± 0.37	5.28 ± 0.3
MADKAKPAKAANRTPPKSPGDPSK [TPPP]	5.22 ± 0.25	5.39 ± 0.15
EAWYEDLQEVLSSDENGGTYVSPP [DDIT3]	4.89 ± 0.11	4.93 ± 0.15
ESPIPEDKDRRFVFSYFLATDMIS [EFHC1]	2.33 ± 0.28	2.23 ± 0.29
ADPMDWSPSNVQKWLLWTEHQYRL [SPDEF]	2.47 ± 0.21	2.43 ± 0.35
IQVLPKLSSSIIHEIDSILGNKPY [KCNAB2]	1.98 ± 0.27	2.28 ± 0.27
LQTLLYFLSDVTAAVKENQMTPTN [DLC1]	2.04 ± 0.52	2.12 ± 0.83
MMLFNDGTFQVNFYHDHTKIIICS [PLK2]	2.79 ± 0.83	2.88 ± 0.86
EEADDTRYTQGTGGDEVDDSVSVN [ZC3H15]	5.63 ± 0.19	5.62 ± 0.19
AADGETNGSCENSDASSHANAAKH [EHMT1]	5.51 ± 0.12	5.35 ± 0.14
WRNLGVQQSQGWVHYMIHEPEPHI [CKS1B]	2.24 ± 0.23	2.28 ± 0.18
LCHCGKAFSHKSMRDRHVNMHLNL [ZBTB22]	2.21 ± 0.45	2.32 ± 0.14

Sequence	protein stability index (treatment: DMSO)	protein stability index (treatment: MLN4924 1 uM, 8 h)
VNRKSVKGNTALHDCAESGSLDIM [FEM1C]	3.7 ± 0.28	3.46 ± 0.47
SQAQETTIIASNAEEAEILHSACG [TOR1AIP2]	5.26 ± 0.29	5.21 ± 0.27
IIANTMAFQNDVYEWARDHRAHHK [SCD]	2.52 ± 0.17	2.86 ± 0.27
RQKDLKFLSEEEYWKLQIFFTNVI [CCNC]	2.57 ± 0.25	2.47 ± 0.83
PGITRVYSIGRSVEGRHLYVLEFS [CPN1]	3.12 ± 0.91	2.81 ± 0.63
DFLEEVEEIVFNLTNNVDLDNTKK [MNAT1]	3.03 ± 0.38	3.18 ± 0.26
WCRDRLLGHREPSAHPVEVFSFDL [TMEM175]	2.39 ± 0.3	2.25 ± 0.39
AAIGVTTSPVLPSLIQLLGRNFIL [HACD3]	2.67 ± 0.19	2.55 ± 0.6
SDTRVGAPATGSGTPGPFTKEGGM [CHIT1]	4.76 ± 0.26	4.98 ± 0.14
HAGTVYGGVMYISGGITHDTFQKE [KLHL13]	2.32 ± 0.24	2.31 ± 0.22
TLSKPSPMPVSQECFETLRGDERI [CHGA]	4.81 ± 0.26	4.75 ± 0.17
KIGFEIGIENEEDTSKQKKMETMY [ZNF449]	4.08 ± 0.29	4.07 ± 0.22
SNNNGRIKQLRSGGTPIRGALQIE [PTPRD]	3.76 ± 0.33	3.85 ± 0.36
PGPPGSSRPVKGQVVTVHLQTSLE [FKBP8]	3.5 ± 0.48	3.53 ± 0.22
GRHYWEVEVGDKTHWAVGVCRDSV [TRIM39]	2.48 ± 0.41	2.42 ± 0.22
RYFYLLENIAWVKSYNICFELEDS [PDS5B]	2.75 ± 0.2	2.05 ± 0.61
PNDEHWKALSRKSTSFRVYIMAFD [FBXO33]	2.11 ± 0.52	2.27 ± 0.45
LENRIQREIALAKKHGTQNKRAAL [CHMP4C]	4.09 ± 0.26	4.04 ± 0.25
NKLPEGVPQPARMPYISDKHPRQT [KLHL20]	4.69 ± 0.12	4.77 ± 0.15
MGSLSSRVLRQPRPALAQQAQGAR [GMCL1]	4.46 ± 0.28	4.56 ± 0.18
RPPGPAGTEQSRGLGHGSTSRGGP [CPOX]	4.794 ± 0.018	4.92 ± 0.33
VTPKKSPPPKTNLTPGQSDSAKRE [FAN1]	5.22 ± 0.33	5.35 ± 0.33
NDADKAINTLNGLKLQTKTIKVSY [ELAVL3]	2.96 ± 0.23	3.11 ± 0.25

Sequence	protein stability index (treatment: DMSO)	protein stability index (treatment: MLN4924 1 uM, 8 h)
QSERQRHESQQLATETQALAQRTQ [TEKT4]	5.43 ± 0.21	5.32 ± 0.16
YAAIVAVVAVHVVLALFVYVAWNE [VMA21]	2.08 ± 0.31	2.1 ± 0.11
RASFWLALVGCVISDNPERYSTNL [EDNRA]	2.85 ± 0.68	2.97 ± 0.62
KCPWMEGGEMSPQVETSIEGTIPF [INTS4]	4.08 ± 0.27	4.03 ± 0.2
QYEVSNFARNGALSTHNWTYWQCG [RSAD1]	2.43 ± 0.25	2.05 ± 0.23
LVKDNPQRSYFLRIFDIKDGKLLW [WASL]	1.99 ± 0.28	2.05 ± 0.36
QTEKLLQFQDLTGIESMDQCRHTL [FAF2]	3.82 ± 0.21	3.66 ± 0.33
KMELLILETQAQVCQALAQVDGGA [CPOX]	2.14 ± 0.52	2.18 ± 0.52
LIQDSPDSSTSPKGKQPTSAENSV [NANOGP8]	5.23 ± 0.11	5.17 ± 0.17
AVCMFLASKLKETSPLTAEKLCIY [CCND2]	2.84 ± 0.61	2.44 ± 0.56
SGIGREGAKDSYDFFTEIKTITVK [ALDH8A1]	3.27 ± 0.37	3.28 ± 0.4
HTMEEEEDDDWGEDTTEEAQRRRM [EIF5]	5.55 ± 0.35	5.63 ± 0.28
ALPSSAPSGPPPPPPSVLGVGPVA [WASL]	4.54 ± 0.15	4.82 ± 0.25
RDIDLKNRRGGPPFAFVEFEDPRD [SRSF1]	4.03 ± 0.35	4.27 ± 0.18
TDRKLDDGDDKVFRRAPSWRKRFR [PPFIA4]	4.38 ± 0.082	4.51 ± 0.47
IYDLNIPAFVKFAYVAEREDELSL [NCK2]	2.25 ± 0.39	2.51 ± 0.2
KAQALRDNSTMGYMMAKKHLEINP [HSP90AB1]	3.39 ± 0.14	3.5 ± 0.23
SNLTSNLASLVSQGMIQLALSGAS [RETREG3]	3.05 ± 0.12	3.15 ± 0.24
SLKAICTEIANCSLKVKFFDLERE [PLD5]	2.12 ± 0.17	2.26 ± 0.84
IAAPHAGANVKPRNSTPPSLARNP [ZC2HC1A]	4.35 ± 0.12	4.48 ± 0.25
